For assay [1], the target named is Nir2 peptide FFAT motif (Homo sapiens) (UniProt O00562). Nature of the assay: ITC. As to conditions: cited from earlier work.
The target of assay [2] is T1, wild-type (WT) hVAPB MSP domain (residues 1–125) (human, UniProt O95292 1-125).
T1 construct: human VAPB (vesicle-associated membrane protein-associated protein B), MSP domain, residues 1-125; 15N-labelled for the HSQC titrations in which its own spectrum was observed; also called WT-MSP domain; WT-MSP
Nature of the assay: NMR titration; 1H-15N HSQC of 15N-labeled WT-/T46I-MSP (100 µM) without or with unlabeled Nir2 peptide or EphA4 at molar ratios 1:0.5 to 1:8; 10 mM phosphate buffer, pH 6.8, 25°C. As to conditions: both partners purified.

Assay [3] deals with T46I mutant of the hVAPB MSP domain (human, UniProt O95292 1-125, T46I). Nature of the assay: ITC.
Target sequence in this assay (O95292 1-125 T46I): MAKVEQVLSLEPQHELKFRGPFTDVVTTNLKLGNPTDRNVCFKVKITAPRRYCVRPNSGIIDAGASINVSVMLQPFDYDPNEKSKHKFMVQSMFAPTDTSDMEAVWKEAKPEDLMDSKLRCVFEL
Assay [4] concerns the target T2, T46I mutant of the hVAPB MSP domain (human, UniProt O95292 1-125, T46I).
T2 construct: human VAPB MSP domain, residues 1-125, with the ALS-causing T46I mutation found in non-Brazilian kindred; Made by site-directed mutagenesis on the WT-MSP construct; PDB 3IKK is the structure of the WT parent; 15N-labelled for the HSQC titrations in which its own spectrum was observed; also called T46I-MSP domain; T46I-MSP
Nature of the assay: ITC; Microcal VP; peptide or EphA4 (300 µM) in the syringe, MSP protein (10 µM) in the cell; 50 mM Tris-HCl, 150 mM NaCl, 2 mM DTT, pH 7.5, 25°C; single binding site model. As to conditions: both partners purified. For orientation: ITC needs no label: the signal is the heat of the interaction.
T2 sequence (O95292 1-125 T46I): as above

T1 sequence (O95292 1-125): as the sequence (O95292 1-125 T46I) above, with I46T counted along it

For orientation: Kd means the concentration at which binding is half-saturated. Take VAPB MSP (from UniProt O95292): the Kd in assay [1] was 650 nM.

B1: Nir2 peptide (EEEFFDAHE) (peptide)
peptide: EEEFFDAHE
notes: FFAT-motif peptide of the Nir2 protein; also called the peptide; source: synthetic peptide, bought: Genesis Biotech Inc., further purified by HPLC (reverse-phase C18)
Consider B1, for which, in assay [2], the binding result was “binds”. In assay [3], this molecule came in with a Ka of 455000 M⁻¹. In assay [4], this molecule returned a Kd of 2200 nM.

These data come from paper PMC3206076, “Structural, Stability, Dynamic and Binding Properties of the ALS-Causing T46I Mutant of the hVAPB MSP Domain as Revealed by NMR and MD Simulations” (PLoS ONE, 2011).
